Laboratory results: patent US20230074436A1 (DENALI THERAPEUTICS, published 2023)
No end group written: not given here. *: point of attachment. Biotin = O=C1N[C@H]2[C@H](CS[C@H]2CCCCC(=O)*)N1

Assays:
[1] = target: human alpha-synuclein oligomers (human, UniProt P37840 1-140); assay: competition ELISA: oligomers titrated in solution against 0.6 nM antibody, free antibody read on aSyn-coated plate
Description: To measure the binding affinities of select antibodies toward oligomeric alpha-synuclein protein, purified antibodies were probed with different concentrations of human alpha-synuclein oligomers in solution, and the levels of unbound antibody were measured by ELISA analysis. In this experiment, 0.6 nM (0.1 pg/mL) of purified antibody was dissolved in phosphate-buffered saline (PBS) solution. […] The mixtures were gently shaken at room temperature for 1 hour to reach equilibrium. After that, these samples were transferred to an alpha-synuclein protein-coated ELISA plate, and antibody not bound to antigen in the previous solution was detected by direct ELISA.

asyn_113-127 [2] = target: T1, asyn_113-127 (human); assay: Ala-scan peptide ELISA, row G, run 2
T1 construct: also called pep1
T1 peptide: Biotin-LEDMPVDPDNEAYEM
Description: (§1) 96-well Nunc plates were coated with 50 μL per well of 1 μg/mL streptavidin (from Jackson Immuno Research Laboratory) in PBS at 4° C. overnight. The plates were washed three times with PBST, and blocked with PBS containing 3% BSA at room temperature for 1 hour. The N-terminal biotinylated peptides were dissolved in Milli Q water to a concentration of 2 mg/mL, then further diluted to a concentration of 2 μg/mL with PBS. 50 μl of the diluted peptide was applied to the streptavidin-coated plates and incubated at 4° C. overnight. 2 μg/mL of biotinylated human alpha-synuclein was used as the positive control. The plates were washed three times with PBST before use. Purified antibody was diluted by serial dilution methods, from 20 μg/mL to 1 ng/mL, and 50 μL of the antibody solution was added to the peptide-coated wells. The plates were incubated for 1 hour at room temperature, then washed three times with PBST. Secondary detection antibody (goat anti-rat HRP (obtained from Southern Biotech)) was added with 1:5,000 dilutions and incubated for 1 hour at room temperature, then washed three times with PBST. Plates were developed with 50 μL/well of TMB substrate (Thermo Fisher) and quenched with 50 μL/well of 1 N sulfuric acid. The signal was quantified on a BioTek® plate reader at A450. A parallel repeat was performed for each peptide in a separate plate.

asyn_113-127_124P [3] = target: T2, asyn_113-127_124P (human); assay: Ala-scan peptide ELISA, row G, run 2
T2 construct: substitution is already in the entry; also called pep14
T2 peptide: Biotin-LEDMPVDPDNEPYEM
Description: as §1

asyn_113-127_120A [4] = target: T3, asyn_113-127_120A (human); assay: Ala-scan peptide ELISA, row G, run 2
T3 construct: substitution is already in the entry; also called pep9
T3 peptide: Biotin-LEDMPVDADNEAYEM
Description: as §1

asyn_113-127_121A [5] = target: T4, asyn_113-127_121A (human); assay: Ala-scan peptide ELISA, row G, run 2
T4 construct: substitution is already in the entry; also called pep10
T4 peptide: Biotin-LEDMPVDPANEAYEM
Description: as §1

asyn_113-127_113A [6] = target: T5, asyn_113-127_113A (human); assay: Ala-scan peptide ELISA, row G, run 2
T5 construct: substitution is already in the entry; also called pep2
T5 peptide: Biotin-AEDMPVDPDNEAYEM
Description: as §1

asyn_113-127_124G [7] = target: T6, asyn_113-127_124G (human); assay: Ala-scan peptide ELISA, row G, run 2
T6 construct: substitution is already in the entry; also called pep13
T6 peptide: Biotin-LEDMPVDPDNEGYEM
Description: as §1

[8] = target: T7, biotinylated human alpha-synuclein (human, UniProt P37840 1-140); assay: Ala-scan peptide ELISA, row G, run 2
Description: as §1

asyn_113-127_117A [9] = target: T8, asyn_113-127_117A (human); assay: Ala-scan peptide ELISA, row G, run 2
T8 construct: substitution is already in the entry; also called pep6
T8 peptide: Biotin-LEDMAVDPDNEAYEM
Description: as §1

asyn_113-127_126A [10] = target: T9, asyn_113-127_126A (human); assay: Ala-scan peptide ELISA, row G, run 2
T9 construct: substitution is already in the entry; also called pep16
T9 peptide: Biotin-LEDMPVDPDNEAYAM
Description: as §1

asyn_113-127_115A [11] = target: T10, asyn_113-127_115A (human); assay: Ala-scan peptide ELISA, row G, run 2
T10 construct: substitution is already in the entry; also called pep4
T10 peptide: Biotin-LEAMPVDPDNEAYEM
Description: as §1

asyn_113-127_122A [12] = target: T11, asyn_113-127_122A (human); assay: Ala-scan peptide ELISA, row G, run 2
T11 construct: substitution is already in the entry; also called pep11
T11 peptide: Biotin-LEDMPVDPDAEAYEM
Description: as §1

asyn_113-127_116A [13] = target: T12, asyn_113-127_116A (human); assay: Ala-scan peptide ELISA, row G, run 2
T12 construct: substitution is already in the entry; also called pep5
T12 peptide: Biotin-LEDAPVDPDNEAYEM
Description: as §1

asyn_113-127_119A [14] = target: T13, asyn_113-127_119A (human); assay: Ala-scan peptide ELISA, row G, run 2
T13 construct: substitution is already in the entry; also called pep8
T13 peptide: Biotin-LEDMPVAPDNEAYEM
Description: as §1

asyn_113-127_118A [15] = target: T14, asyn_113-127_118A (human); assay: Ala-scan peptide ELISA, row G, run 2
T14 construct: substitution is already in the entry; also called pep7
T14 peptide: Biotin-LEDMPADPDNEAYEM
Description: as §1

asyn_113-127_123A [16] = target: T15, asyn_113-127_123A (human); assay: Ala-scan peptide ELISA, row G, run 2
T15 construct: substitution is already in the entry; also called pep12
T15 peptide: Biotin-LEDMPVDPDNAAYEM
Description: as §1

asyn_113-127_114A [17] = target: T16, asyn_113-127_114A (human); assay: Ala-scan peptide ELISA, row G, run 2
T16 construct: substitution is already in the entry; also called pep3
T16 peptide: Biotin-LADMPVDPDNEAYEM
Description: as §1

asyn_113-127 [18] = target: T1, asyn_113-127; assay: Ala-scan peptide ELISA, row A, run 1
Description: as §1

asyn_113-127_124P [19] = target: T2, asyn_113-127_124P; assay: Ala-scan peptide ELISA, row A, run 1
Description: as §1

asyn_113-127_120A [20] = target: T3, asyn_113-127_120A; assay: Ala-scan peptide ELISA, row A, run 1
Description: as §1

asyn_113-127_121A [21] = target: T4, asyn_113-127_121A; assay: Ala-scan peptide ELISA, row A, run 1
Description: as §1

asyn_113-127_113A [22] = target: T5, asyn_113-127_113A; assay: Ala-scan peptide ELISA, row A, run 1
Description: as §1

asyn_113-127_124G [23] = target: T6, asyn_113-127_124G; assay: Ala-scan peptide ELISA, row A, run 1
Description: as §1

[24] = target: T7, biotinylated human alpha-synuclein; assay: Ala-scan peptide ELISA, row A, run 1
Description: as §1

asyn_113-127_117A [25] = target: T8, asyn_113-127_117A; assay: Ala-scan peptide ELISA, row A, run 1
Description: as §1

asyn_113-127_126A [26] = target: T9, asyn_113-127_126A; assay: Ala-scan peptide ELISA, row A, run 1
Description: as §1

asyn_113-127_115A [27] = target: T10, asyn_113-127_115A; assay: Ala-scan peptide ELISA, row A, run 1
Description: as §1

asyn_113-127_125A = target: T17, asyn_113-127_125A (human); assay: Ala-scan peptide ELISA, row A, run 1
T17 construct: substitution is already in the entry; also called pep15
T17 peptide: Biotin-LEDMPVDPDNEAAEM
Description: as §1

asyn_113-127_122A [28] = target: T11, asyn_113-127_122A; assay: Ala-scan peptide ELISA, row A, run 1
Description: as §1

asyn_113-127_116A [29] = target: T12, asyn_113-127_116A; assay: Ala-scan peptide ELISA, row A, run 1
Description: as §1

asyn_113-127_127A = target: T18, asyn_113-127_127A (human); assay: Ala-scan peptide ELISA, row A, run 1
T18 construct: substitution is already in the entry; also called pep17
T18 peptide: Biotin-LEDMPVDPDNEAYEA
Description: as §1

asyn_113-127_119A [30] = target: T13, asyn_113-127_119A; assay: Ala-scan peptide ELISA, row A, run 1
Description: as §1

asyn_113-127_118A [31] = target: T14, asyn_113-127_118A; assay: Ala-scan peptide ELISA, row A, run 1
Description: as §1

asyn_113-127_123A [32] = target: T15, asyn_113-127_123A; assay: Ala-scan peptide ELISA, row A, run 1
Description: as §1

asyn_113-127_114A [33] = target: T16, asyn_113-127_114A; assay: Ala-scan peptide ELISA, row A, run 1
Description: as §1

B1: 20H4 (antibody, rat IgG2b, V domains shown)
VH: AVQLVESGGGLVQPKESLKISCAASGFTFSNAAMYWVRQAPGKGLELLARIRTKPNNYATYHADSVKGRFTISRDDSQSMVYLHMGNLKTEDTAMYYCTADMATGDYWGPGVMVTVSS
VL: DIQMTQSPPVLSVSVGDRVTLSCKASQNINKNLDWYQQKHGEAPKPLIYSTNNLQTGVPSRFSGSGSGTDYTLTISSLQPEDVATYYCYQYKSAWTFGGGTKLELR
notes: also called clone 20H4; rat 20H4
Binder B1 has an IC50 [1] of 5.38 nM, an A450 (asyn_113-127 [2]) of 0.089 OD and an A450 (asyn_113-127_124P [3]) of 0.048 OD. It also gave an A450 (asyn_113-127_120A [4]) of 0.072 OD, an A450 (asyn_113-127_121A [5]) of 0.097 OD and an A450 (asyn_113-127_113A [6]) of 0.095 OD. The A450 (asyn_113-127_124G [7]) was 0.095 OD, the A450 [8] was 0.152 OD and the A450 (asyn_113-127_117A [9]) was 0.108 OD. For the same binder, the A450 (asyn_113-127_126A [10]) was 0.101 OD, the A450 (asyn_113-127_115A [11]) was 0.057 OD and the A450 (asyn_113-127_122A [12]) was 0.048 OD. The A450 (asyn_113-127_116A [13]) was 0.101 OD, the A450 (asyn_113-127_119A [14]) was 0.05 OD and the A450 (asyn_113-127_118A [15]) was 0.109 OD. For the same binder, the A450 (asyn_113-127_123A [16]) was 0.103 OD, the A450 (asyn_113-127_114A [17]) was 0.093 OD and the A450 (asyn_113-127 [18]) was 0.545 OD. It also gave an A450 (asyn_113-127_124P [19]) of 0.055 OD, an A450 (asyn_113-127_120A [20]) of 0.414 OD and an A450 (asyn_113-127_121A [21]) of 0.496 OD. The A450 (asyn_113-127_113A [22]) was 0.529 OD, the A450 (asyn_113-127_124G [23]) was 0.371 OD and the A450 [24] was 0.66 OD. For the same binder, the A450 (asyn_113-127_117A [25]) was 0.55 OD, the A450 (asyn_113-127_126A [26]) was 0.371 OD and the A450 (asyn_113-127_115A [27]) was 0.502 OD. It also gave an A450 (asyn_113-127_125A) of 0.053 OD, an A450 (asyn_113-127_122A [28]) of 0.06 OD and an A450 (asyn_113-127_116A [29]) of 0.524 OD. It also gave an A450 (asyn_113-127_127A) of 0.338 OD, an A450 (asyn_113-127_119A [30]) of 0.063 OD and an A450 (asyn_113-127_118A [31]) of 0.504 OD. For the same binder, the A450 (asyn_113-127_123A [32]) was 0.533 OD and the A450 (asyn_113-127_114A [33]) was 0.505 OD.
